# Results as given in publication PMC8219380, “The discriminatory power of the T cell receptor” (eLife, 2021).
# Columns and labels:
# IFNAR1 and IFNAR2 = experiment: Discrimination power from published data: type I IFN receptor; conditions: n 13, ref Thomas C. 2011
# From the text: (§1) The broad method was to obtain a measure of ligand potency from each study. […] If not explicitly provided, we estimated ligand potency as PX , which was defined by the concentration of ligand that produced X response. To do this, we drew a horizontal line at X on a provided dose-response graph and estimated the ligand concentration where the data intercepted the horizontal line. The disadvantage with this method is that ligand potency was estimated based on the single representative graph provided in the study.
# (§2) Each study often contained or cited a study that contained estimates of KD or koff for the specific TCR/pMHC interactions used in the study. We only included studies where monomeric SPR binding data was available to avoid multimeric binding parameters (e.g. when using tetramers). However, when analysing discrimination by other non-TCR receptors, we included binding data from various methods (e.g. SPR, radio labelled ligands) provided they were monomeric measurements. The use of SPR is important for weak interactions, such as TCR/pMHC, but various methods are available for higher-affinity interactions.
# The plot of potency over KD or k off was fit using linear regression on log-transformed axes. We reported the slope of the fit (i.e. the discrimination power, α), the goodness-of-fit measure ( R^2 ), and the p-value for the null hypothesis that the slope is zero (i.e. α=0 ). […]
# CXC chemokine receptor 3 = experiment: Discrimination power from published data: CXCR3; conditions: ref Heise 2005
# From the text: as §1, §2
# (§3) The plot of potency over KD or k off was fit using linear regression on log-transformed axes. We reported the slope of the fit (i.e. the discrimination power, α), the goodness-of-fit measure ( R^2 ), and the p-value for the null hypothesis that the slope is zero (i.e. α=0 ). We defined significance using the threshold of p=0.05.
# Therefore, ligand affinity may not correlate to functional potency. Instead, we focused on identifying studies that used ligands that were confirmed to bind to the same interface with different affinities. As an example, Sykes et al. used seven agonists to the muscarinic M3 receptor and confirmed they all bound to the same interface using a binding competition assay ([Sykes et al., 2009]). Using titrations of each ligand, they examined the binding of GTPγS to CHO-M3 membrane as a measure of response (Figure 6C, left). […]
# IL-13Ra1 = experiment: Discrimination power from published data: IL-13 receptor; conditions: ref Moraga 2015
# From the text: as §1, §2, §3
# Cytokine receptors transduce signals by ligand-induced dimerisation of receptor subunits. We identified five studies that produced ligands with mutations that modified binding to either one or both receptor subunits and either reported potency or provided dose-response curves from which potency can be extracted ([Levin et al., 2012]; [Moraga et al., 2015]; [Thomas et al., 2011a]; [Mendoza et al., 2017]; [Martinez-Fabregas et al., 2019]). […] By measuring cellular responses, such as upregulation of CD86 on monocytes, dose-response curves were generated for each IL-13 variant, allowing us to determine ligand potency. We observed a significant correlation between potency and KD (Figure 6A). We repeated the analysis for each study (Figure 6—source data 1 ID 1–13). In studies that included ligands with mutations to both receptor interfaces, we plotted potency over the product of the dissociation constants to each interface since this serves as an estimate of the overall affinity (i.e. KD1×KD2 ).
molecule,measurement,setting,value
IFNAR1/IFNAR2,Power (discrimination power),"IFNAR1 and IFNAR2; ID 7, output antiviral",0.7137
same,Power (discrimination power),"IFNAR1 and IFNAR2; ID 8, output antiproliferation",1.329
"CXC chemokine receptor 3: CXCR3 with chemokine ligands (protein, UniProt P49682 1-368, looked up) C-X-C chemokine receptor type …: MVLEVSDHQVLNDAEVAALLENFSSSYDYGENESDSCCTSPPCPQDFSLNFDRAFLPALYSLLFLLGLLGNGAVAAVLLSRRTALSSTDTFLLHLAVADTLLVLTLPLWAVDAAVQWVFGSGLCKVAGALFNINFYAGALLLACISFDRYLNIVHATQLYRRGPPARVTLTCLAVWGLCLLFALPDFIFLSAHHDERLNATHCQYNFPQVGRTALRVLQLVAGFLLPLLVMAYCYAHILAVLLVSRGQRRLRAMRLVVVVVVAFALCWTPYHLVVLVDILMDLGALARNCGRESRVDVAKSVTSGLGYMHCCLNPLLYAFVGVKFRERMWMLLLRLGCPNQRGLQRQPSSSRRDSSWSETSEASYSGL",Power (discrimination power),"CXC chemokine receptor 3; ID 22, output Calcium mobilization, n 3",0.7346
same,Power (discrimination power),"CXC chemokine receptor 3; ID 23, output GTP gamma S Binding, n 3",1.056
same,Power (discrimination power),"CXC chemokine receptor 3; ID 24, output Migrated Cells, n 2, ns, Perfect line",0.5609
"IL-13Rα1 (protein, UniProt P78552 22-427, looked up) Interleukin-13 receptor …: GGGGAAPTETQPPVTNLSVSVENLCTVIWTWNPPEGASSNCSLWYFSHFGDKQDKKIAPETRRSIEVPLNERICLQVGSQCSTNESEKPSILVEKCISPPEGDPESAVTELQCIWHNLSYMKCSWLPGRNTSPDTNYTLYYWHRSLEKIHQCENIFREGQYFGCSFDLTKVKDSSFEQHSVQIMVKDNAGKIKPSFNIVPLTSRVKPDPPHIKNLSFHNDDLYVQWENPQNFISRCLFYEVEVNNSQTETHNVFYVQEAKCENPEFERNVENTSCFMVPGVLPDTLNTVRIRVKTNKLCYEDDKLWSNWSQEMSIGKKRNSTLYITMLLIVPVIVAGAIIVLLLYLKRLKIIIFPPIPDPGKIFKEMFGDQNDDTLHWKKYDIYEKQTKEETDSVVLIENLKKASQ",Power (discrimination power),"IL-13Ra1; ID 3, output pSTAT6, n 9",0.471
same,Power (discrimination power),"IL-13Ra1; ID 6, output CD205, n 9",0.421
"IL-13Rα2 (protein, UniProt Q14627 27-380, looked up) Interleukin-13 receptor …: DTEIKVNPPQDFEIVDPGYLGYLYLQWQPPLSLDHFKECTVEYELKYRNIGSETWKTIITKNLHYKDGFDLNKGIEAKIHTLLPWQCTNGSEVQSSWAETTYWISPQGIPETKVQDMDCVYYNWQYLLCSWKPGIGVLLDTNYNLFYWYEGLDHALQCVDYIKADGQNIGCRFPYLEASDYKDFYICVNGSSENKPIRSSYFTFQLQNIVKPLPPVYLTFTRESSCEIKLKWSIPLGPIPARCFDYEIEIREDDTTLVTATVENETYTLKTTNETRQLCFVVRSKVNIYCSDDGIWSEWSDKQCWEGEDLSKKTLLRFWLPFGFILILVIFVTGLLLRKPNTYPKMIPEFFCDT",Power (discrimination power),"IL-13Ra1; ID 4, output Proliferation, n 9, ns",0.394
same,Power (discrimination power),"IL-13Ra1; ID 5, output CD86",0.442
